{
  "source": "paper PMC4632993",
  "origin": "cited, not measured here",
  "biological_target": "ubiquitin (Homo sapiens) (UniProt P0CG47)",
  "data": [
    {"substance": "MDA-9/Syntenin (from UniProt O00560)", "values": [
      {"measurement": "Kd", "value": 27.3, "unit": "µM"}
    ]}
  ]
}
